{
  "source": "patent US7033773B1",
  "about": "“Screening assays for G protein coupled receptor agonists and antagonists” (The General Hospital Corporation, priority 1997, dated 2006)",
  "key": {"[1]": {"biological_target": "T1, human PTH/PTHrP receptor (Homo sapiens, UniProt Q03431)", "T1 sequence (Q03431 27-593)": "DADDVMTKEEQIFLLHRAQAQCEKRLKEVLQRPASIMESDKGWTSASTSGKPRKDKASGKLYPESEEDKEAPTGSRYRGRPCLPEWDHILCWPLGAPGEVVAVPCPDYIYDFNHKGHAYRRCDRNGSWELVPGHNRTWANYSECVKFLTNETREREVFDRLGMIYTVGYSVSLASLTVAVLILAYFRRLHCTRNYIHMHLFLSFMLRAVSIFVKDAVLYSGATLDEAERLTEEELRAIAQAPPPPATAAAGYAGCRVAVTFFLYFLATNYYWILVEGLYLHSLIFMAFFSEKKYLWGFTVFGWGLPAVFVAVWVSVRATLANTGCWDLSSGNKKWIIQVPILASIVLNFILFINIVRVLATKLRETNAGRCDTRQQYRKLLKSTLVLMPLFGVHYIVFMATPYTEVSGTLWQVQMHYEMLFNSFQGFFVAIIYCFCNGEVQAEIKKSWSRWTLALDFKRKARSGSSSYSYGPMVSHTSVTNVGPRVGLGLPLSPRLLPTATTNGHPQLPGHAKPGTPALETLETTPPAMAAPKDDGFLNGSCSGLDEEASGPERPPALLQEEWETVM", "assay": "Cellular phosphate uptake in LLC-PK1 cells expressing human PTHR", "type": "cell-based", "set-up": "transfected with a full-length human PTH/PTHrP receptor cDNA; expressed in transfected cells", "settings": "HKRK B28 and HKRK B7 cells; peptides 1000 nM, 6 hr", "protocol": "FIG. 8. Regulation of phosphate uptake by PTH in HKRK B7 and HKRK B28 cells. […] Results are expressed as percentage of basal, and each bar represents the mean±SEM of a representative experiment performed in triplicate. Similar results were obtained from at least 5 individual experiments. Cells were seeded into 24-well plates at a density of 2.5×10^5 cells/well and cultured for a further 2 days before study. Twenty four hours before assay, cells were refed with 0.5 ml of DMEM containing 0.1% BSA. The next day, cells were refed with serum-free medium (DMEM+0.1% BSA) containing drugs or peptides, and the incubations were continued at 37° C. under 5% CO2 in air for another 6 hr. Cells then were washed with prewarmed Buffer B without BSA and Na2HPO4 and then were incubated at 37° C. for 5 min in 0.25 ml of the same buffer containing [^32P]orthophosphate (4 uCi/ml) and 0.1 mM Na2HPO4. Phosphate uptake was arrested by adding 1 ml of ice-cold sodium-free “stop buffer” [10 mM HEPES (pH 7.4), 140 mM choline chloride, and 5 mM sodium arsenate], followed by two further washes with same buffer. The drained cell layer then was solubilized in 0.5 ml of Lysis Buffer, and cell-associated radioactivity was determined by Cerenkov counting, as previously described (Guo, J., et al., Endocrinology 136:3884-3891 (1995))."}, "[2]": {"biological_target": "T1, human PTH/PTHrP receptor", "assay": "IP3 production (PLC activation) in LLC-PK1 cells expressing human PTHR", "type": "cell-based", "set-up": "transfected with a full-length human PTH/PTHrP receptor cDNA; expressed in transfected cells", "settings": "for formation of IP3 (activation of phospholipase-C): peptide 1000 nM, mean±SEM", "protocol": "Cells were seeded into 24-well plates at a density of 2.5×10^5 cells/well and cultured for a further 2 days before study. The cells were labeled at 37° C. for 16 h before assay with 3 uCi/ml of [^3H]myo-inositol in assay medium (serum- and inositol-free DMEM (GIBCO-BRL, Grand Island, N.Y.) supplemented with 0.1% BSA). After washing the cells with prewarmed assay medium containing 30 mM LiCl, they were incubated with 0.25 ml of assay medium containing 30 mM LiCl and stimulators (or vehicle) at 37° C. for various intervals(1-30 min). IP3 formation was arrested by aspiration and immediate addition of 0.5 ml of ice-cold 5% TCA. The acid extracts then were extracted twice with two volumes of water-saturated ether and adjusted to pH 7.4 with concentrated NaOH and Tris base (final concentration=10 mM) prior to chromatography on AG 1×8 anion-exchange columns (Bio-Rad, Richmond, Calif.), as previously described (Guo, J., et al., Endocrinology 136:3884-3891 (1995)). After eluting other fractions (free [^3H]myo-inositol, glycerophosphate inositol, IP1, and IP2), IP3 fractions were collected and their content of radioactivity was determined by liquid scintillation spectrometry (Beckman, model LS 6000IC).\nHKRK B7 cells and HKRK B28 cells, previously loaded with [^3H]myo-inositol, were incubated with each peptide (1000 nM) for 30 min or 4 min, respectively. The formation of IP3 is expressed as a percentage of the amount measured in vehicle-treated controls. Values shown are means±SEM of triplicate determinations."}},
  "data": [
    {"substance": "hPTH(1-31)", "values": [
      {"measurement": "maximal activation of phosphate uptake (in words)", "setting": "[1]", "result": "comparable maximal activation of phosphate uptake"},
      {"measurement": "activation of PLC (in words)", "setting": "[2]; 1000 nM, HKRK B28 at 4 min and HKRK B7 at 30 min", "result": "stimulated PLC equivalently to hPTH(1-34)"},
      {"measurement": "formation of IP3 (activation of phospholipase-C)", "setting": "[2]; HKRK B7 cells, 30 min stimulation", "result": "275 ± 21 percentage of vehicle-treated"},
      {"measurement": "formation of IP3 (activation of phospholipase-C)", "setting": "[2]; HKRK B28 cells, 4 min stimulation", "result": "170 ± 14 percentage of vehicle-treated"}
    ]}
  ]
}
